# The DeepSol protein solubility set
# Assay: soluble on expression in E. coli; label from the status in PepcDB or PDB records
row,Sequence,soluble on expression in E. coli
1,MAHHHHHHMSKSIAVIAAGAPAALVQAASAMVSKATGGAVKAMQATSAASNAIVVGMQAPRGVYACVAEPPSTASGPYAGVKTVVVRAILPRRAPDTMQVRDILDVYPASGITCEQETAEAVESFSKAAKVAVEKAKAMKATRVTLVMKPATKYERLNSLFRETCTKTIEAAGLSVETATTAAATNTLIMFPEKMSVVMVSDDPVCENVQYAFAGVVGGAHTTYYTDAGSTIHGGHSYKSVAMALAEELKSLGMKAEAAKVEAAAQKSPRNAAAAM,not soluble
2,MAHHHHHHMSLEPTLRDLLHSKLQWIFVGGKGGVGKTTTSCALATLFASTPVHDAVTNTTRPRRVLLISTDPAHNLSDAFSQKFGKTPVPVNGMEETLFAMEVDPTTFTHGGFGAMLGFPGHIATDADAPSPFAALGNILKEAAGTLPGIDELSVFAEILRGVQQLSYDVVIFDTAPTGHTLRLLALPHTLNSTMEKLLSVEGLNTLIQAASAVLSSTTNLGDMSSLMPAFKQWRENVQEVQRQFTDAEKTAFICVCIPEFLSVYETERLVQELMKYDISCDSIVVNQLVLKPSSEPDCRMCNARQKIQSKYLAQIDSLYEDFHVVKMPLLSDEVRGVPALQRFAQFLLEPYDADRHGYIDVCGAAS,soluble
3,MAHHHHHHMSLNLTDAADDRSYKEMEKYTVERVAGQGTFGTVQLARDKSTGSLVAIKKVIQDPRFKNRELQIMQHLARLRHPNIVMLKNYFYTVGGEGRRNDVYLNVVMEFVPETLHRTCRNYYRRMTNPPLILVKVFMFQLLRSIACLHIPVINICHRDIKPHNVLVDEQTGELKLCDFGSAKRLAADEPNVAYICSRYYRAPELIFGNQFYTTAVDIWSVGCIFAEMLLGEPIFCGENTSGQLREIVKILGKPTKEELHKLNGSSTEINANAKATPWENVFKQPLPAEVYDLCGKIFKYVPDQRITPLDALCHPFFNELREPTTKLPSGNPLPAHLYQFTPDEVEAMTEAQREYLLKK,not soluble
4,MAHHHHHHMSMKGSKNMLSPLVGNIYNNVYDHKELKMKSINEQNNMGSNNYNINYVNNNNSTLSNNNHSKQNLCYNNFSSHSPSINKDSIHEEKKNNFYEQHNYIDENATHHTMEEENYKNFKNSKNYEHTIDEDVMQNEYSNIIKDNHLKKKKKKKNIHHLNNKDINNTNLNYETNEQVLIDLPKNHLLNKLTTSIIHSINPHLISEYTHEDITKRTNKISTLKKKKKKKKIEREEIYESDVDNTNGEDNTNDVDNTNDEDNTNDEDNTNDGDNEQIHYHKQFDDQIQKQKNKQNKQKKEYKEFDVYETKGYIPLSNEHKQNKSVCFLDNHVKYYTQQNNVPYEKNIIYENNLNDHQAHSYYNNTLNQFTPNSDILNYNNYINKEYIQGIYNTNNYNIKQDSVYEPNEQVMFMSPQEEKYIYMNASPNNIIRNNDMVFYSGQLDNEQMNININNNNNINNNDNNINSSSSVNDGCFNLHLNNMNNIFNTCTNTQNKQKTHKSFFCNSSAKNVINNENNVKNNKTEILIYKNDKTNNYQNNNQTKQNIQSNNHYNNNNNNNGNHINKFRFFTPTSNNVFVRTRSLTPNTYQKKKKNSFFACSPLKDINLNRQKSLPPQLYTTQDITQPIYTHDISYNLSNKNNIIQNDPYNNIQNITTTLSYPLVNSNFVHLYPYQNSNTNNQIKKIENFNVSKNYMNESSTQTSTETSSKSSKDTSLWNTQIHLLNEKIKNMKTKMENITKEKNEVNELCKMYKVIKNHINVNV,not soluble
5,MAHHHHHHMSQSTSLAYATLFHPSRDSATIQHSAARASAAHQQQVQQSPSITRATDGATYTAEGIAVASLSSLDTWTGFLSSQWAETVKMQLSMPSNAAPVISPSGADLISSLHSIVSRQNKVVAQPQEKLVAQRAKEEKDWEAKKQLSQSTSAEGMPGSFKNTKDEAVSSVDDNVADNAAENTQVCVLLAHLLEHARFLWARAVSQHFRVAQVRKSSSSKDTRSPKKVTADINAEAAMEEERVGLPPISLLFRCLVDGINSEEARQAIVTAGVLPASAWDSGVLGVDQLGILTVFERHVQALRTFPGIVPPLEALREYFAELHPQQLSKYYPSGALDSTLELAEAQMDAFLRFGDETEQMAALLRAGLHPSVRRLLYARALQVPLTVTDGKPMFLAQGELMTNHLRHGLARYLTCSSRQARDKVKRRFHHRYSSSKEENRVRLLQRLALDDMFISVGNSDKYFVYTDDVEVLSTAMVVDHSLPVPKMVQALKQLGRPRDLLDSYVTYLQYPETNLVQQKALPCGVAPLEGFALLLGALCNVTSDTVEQYELAAAIVAQLWSRLQGPTPELFQCCLIFESLVQQLALPAVLHATRNLQYPPLVLAMRWMLTGFADLLDAFEVLSFWDLVLSYHMREMHRRSPLSLPTGLANAAPHDTSTPCALWLLPMYAAAIFVMRAPLVEACRTAAEVDVVFATGHQLRTRSLLQGLLFG,not soluble
6,MAHHHHHHMSSHALSSGSAPNVSSATTGTVAQQADSLTRNLLLGIPKEGLSPDSPEAADLQAAEAFVSDIQQEILAYDIANAKAIELYAVRWWSAVPFFGRHAKRALAAESTAAAAAAAGETHESTEAAAAAVAVDGSANSSEGHGLRLSPEEAAAALQSGGAYLHRQTSQTPRGFKVERTSALDPGQLSQLAGGASGASESKAVPVPKVNTWLFRRQHPSWVPLMQRWWVPWLCCGSIVLIWTPDVWKLRTLYFCDHQYALLRQSIHKAYWWATMRPEDYAEHIAAIAAERPSRVRGTSCPFE,not soluble
7,MAHHHHHHMSSKKQDASAELLSELRAVIVSGGSMGTLDEQKVRSVVEKTNESYACIQSIATNPYADLTQPYYVSSVNYYRAKCLRDKRCLLTYLLWRQKQVAKAWWSVRDNLLEGSLSAAEAKYLSDYQGIMVEYMTSFDVPLDLRAYLWRPPSVRQLEVRGRCHYEFRSSVSGKTIIINIGDQLFLSFEEAEPLIQQGIVELVGH,not soluble
8,MAHHHHHHMSSYDAMSAVSSNGAVMPEINLHPRLMTHRPESDSYTGSARHSSRSTRAVPTNAELAYAGVTAQDGVVQQLSSRSEERGSLAGPREVSAQSNSGHRALRAITACGSIDEPLQLSEPHQGRAIRDTPREQKPQQHQSQPTRSISHGVVARNAAGAGSSREPIRPGRSSCSSTPRIPSKHNDPYAHVTSVVQEYRQSRINALEAQYRVAHTHSNTSVSQGYDTRQSQSASPRSLEARRNASAHSRASARPRDGSWRMSSVSSRTRQNSPLPRAVEEEYLRGGVPRAALDAPHIRYAEALYNMYNSSSSSARRLACMSSMSSNMTTEYVPDVAKRIPDRFKYVPPTEEERRLHREATLRALEEWRRRQCARENAHCKGSEDMAAGGAAVELRNRNPPKNQSGTRSQQPQQAGHEEAAAWALQKGFDNTSDSFSGQARDSFTPSKKCSARKAKKIRSAAEQRDDYPTNEGAGEWERPQSSVGKRSGTLISRRQNGAGLRASSRKGRKSPTESARVEDGMKLNSFREKLLFDIAPPTVSIA,not soluble
9,MAHHHHHHMSSYRSDVDPFKEIRVLPREAAQLRHHLSRINHALQTKYFVAAELSELALQPDRSDEFLALYKAEIYRVVAKLNMNAKKQYTVTVDPLRLTTGFEFKRGADRKDNLGTAVTAATVEGLTSPDVHAKWTASLVETSRLLAQQHAINPNCQALSSALQSTPSSQQTQGLNGGGGAAAVGSDVIGDASTCAIDSDVRKANKESFLFSTPPEFAGFAPSGASPGAP,not soluble
10,MAHHHHHHMSTRRLMHTMIRVGDLDRSIKFYTEALGMRLLRKWDCPEDKFTLVFLGYGTESETAVLELTYNYGQSEYKHGDAYGHIAIGVEDVNEEIARLKKMNVPIDYESEDGFMAFIVDPDGYYIELLNTERMLEKSREQMNEQGTA,soluble
11,MAHHHHHHMSTYVPKPSRDNVYRFFFTEGVIACKKDRMGTWTGTLGGNTFTVPCIQVMQLMRSLKSRNLIKEQYAWRHYYWTLNDEGIAYMRSYLHLAPSAMPNTQKPSSVNFEKVTEGRGRGRGRGGRGRGEGRGRGRGEGRGRGRGRGFGGERMNYRAAAATSDGEAAPAPAAE,soluble
12,MAHHHHHHMSVDFTSKAVDLLKRATTLDEAKEYEEAYRWYMDSIEVFMTAIKYENKNPTKKEMLKNKVRQVMERAKMIKEYLDGSKEGDSNVGNTGSTAQKTASASKKAKEEEEDKQRMRNALGGAIVRVKPNVNWSQIAGLEGAKEALKEAVILPVRFPQLFTGNRKPWKGILMYGPPGTGKSFLAKAVATEADGTFLSVSSADLMSRWLGDSEKLVRNLFEMAREAWKTDGKPAIIFIDEIDSMCSSRTDGENDALRRIKTEFLVQMQGVGHEDDGVLVLGATNIPWSLDSAVRRRFERRIYIPLPDVQARYQMFKIHIGDTPHTLTEKDWYELARMTDKYSGSDINIVVRNAMMECIRSVQVATHFKRVTGPDLKDPTRMTNNRLVPCSPGDPEGFAMTAQEITEPGLLMPLPVTMQDFVKALRTARPSVADDDITQHLKFTEEFGQEG,not soluble
